Assay results: patent US20080193964A1, “Compositions and methods for regulation of calcium-dependent signaling in brain” (priority 2002, published 2008)

Legend:
DARPP-21 phosphorylation = settings: treatment of mice; cited from earlier work
calmodulin [1] = target: T1, calmodulin (Rattus norvegicus, UniProt P0DP29); assay: Yeast two-hybrid protein-protein binding assay; settings: yeast strain EGY48; FIG. 2
T1 construct: host or cells: yeast strain EGY48
Procedure: Protein-protein binding assays were performed in a yeast two-hybrid system using the DupLexA system (Origene Technologies, Rockville, Md.) in yeast strain EGY48. To generate a fusion protein of LexA and DARPP-21, DARPP-21 cDNA was subcloned into EcoRI-XhoI sites of pEG202 bait vector. Prey vector contained oligo-dT primed rat brain library (Origene Technologies, Rockville, Md.) attached to the B42 acid blob domain and governed by a gal-1 promoter.
Yeast were sequentially transformed with the bait, pSH18-34 lacZ-harboring prey cDNA library-containing plasmids using the lithium acetate protocol. Efficiency of transformation was estimated to be 10^6 with a library complexity of 4×10^6 individual clones. Positive clones appeared 3 to 7 days after transformation. Bait-prey interaction was assessed by intensity of growth on a (gal)(-his, -trp, -ura, -leu) medium. Specificity of the interaction was verified by X-gal staining and mating assay (Origene Technologies, Rockville, Md.).
To confirm calmodulin-DARPP-21 interactions and compare calmodulin binding to DARPP-21 mutants, EGY48 yeast cells were transformed with the bait, prey and lacZ reporter plasmids and plated onto (glu)(-his, -trp, -ura) plates. Four days later, selected colonies were transferred into a liquid (+raf)(-his, -trp, -ura) medium and grown overnight at 30 C with vigorous shaking. […]

calmodulin [2] = target: T2, calmodulin (Bos taurus, UniProt P62157); assay: Affinity chromatography using calmodulin-Sepharose; type: binding; settings: 0.5 mM CaCl2 buffer versus 1 mM EGTA buffer; FIG. 5
T2 construct: purchased Amersham Pharmacia Biotech
Procedure: DARPP-21 (0.5 ml of 0.1 mg/ml) was applied to 0.5 ml of 1 mg/ml calmodulin-Sepharose (Amersham Pharmacia Biotech, Piscataway, N.J.) in buffer B (100 mM NaCl, 20 mM Tris pH 7.5, 1 mM MgCl2, 0.5 mM CaCl2, 1 mM DTT) or buffer C containing 1 mM EGTA instead of 0.5 mM CaCl2. Beads were washed with several volumes of buffer D containing 300 mM NaCl and 20 mM Tris pH 7.5 and bound proteins were eluted with 10 mM EGTA/20 mM Tris pH 7.5.

calcineurin = assay: In vitro inhibition of calcineurin phosphatase activity; type: biochemical
Procedure: (§1) For preparations of phosphorylated DARPP-21, the protein was phosphorylated in vitro using [γ-^32P]ATP with the catalytic subunit of PKA as described (Caporaso et al. 2000. Neuropharmacology 39:1636-1643). The stoichiometry of phosphorylation was determined to be 95% for DARPP-21.
(§2) DARPP-21 was phosphorylated as described in Section 6.1. In vitro inhibition studies on the kinase and phosphatase activities of CaMKI and calcineurin, respectively, were performed according to standard techniques in the art.

CaMKI = assay: In vitro inhibition of CaMKI kinase activity; type: biochemical
Procedure: as §1, §2

[3] = same concentration as phosphorylated DARPP-21

CN[C@@H](C)Cc1ccccc1 [methamphetamine]
DARPP-21 phosphorylation in vivo (DARPP-21 phosphorylation): increased

B1: Ser^55 to alanine in DARPP-21: DARPP-21 mutant with Ala substitution for Ser^55, LexA fusion in yeast (protein, UniProt Q9UBL0 2-812, looked up, variant S55A)
cAMP-regulated phosphoprotein …: SEQGDLNQAIAEEGGTEQETATPENGIVKSESLDEEEKLELQRRLEAQNQERRKAKSGAGKGKLTRSLAVCEESSARPGGESLQDQESIHLQLSSFSSLQEEDKSRKDDSEREKEKDKNKDKTSEKPKIRMLSKDCSQEYTDSTGIDLHEFLINTLKNNSRDRMILLKMEQEIIDFIADNNNHYKKFPQMSSYQRMLVHRVAAYFGLDHNVDQTGKSVIINKTSSTRIPEQRFCEHLKDEKGEESQKRFILKRDNSSIDKEDNQQNRMHPFRDDRRSKSIEEREEEYQRVRERIFAHDSVCSQESLFVENSRLLEDSNICNETYKKRQLFRGNRDGSGRTSGSRQSSSENELKWSDHQRAWSSTDSDSSNRNLKPAMTKTASFGGITVLTRGDSTSSTRSTGKLSKAGSESSSSAGSSGSLSRTHPPLQSTPLVSGVAAGSPGCVPYPENGIGGQVAPSSTSYILLPLEAATGIPPGSILLNPHTGQPFVNPDGTPAIYNPPTSQQPLRSAMVGQSQQQPPQQQPSPQPQQQVQPPQPQMAGPLVTQRDDVATQFGQMTLSRQSSGETPEPPSGPVYPSSLMPQPAQQPSYVIASTGQQLPTGGFSGSGPPISQQVLQPPPSPQGFVQQPPPAQMPVYYYPSGQYPTSTTQQYRPMAPVQYNAQRSQQMPQAAQQAGYQPVLSGQQGFQGLIGVQQPPQSQNVINNQQGTPVQSVMVSYPTMSSYQVPMTQGSQGLPQQSYQQPIMLPNQAGQGSLPATGMPVYCNVTPPTPQNNLRLIGPHCPSSTVPVMSASCRTNCASMSNAGWQVKF
modifications: LexA fusion
notes: DARPP-21 mutant with Ala substitution for Ser^55, LexA fusion in yeast
interaction with calmodulin in yeast (calmodulin [1]): completely inhibited the interaction with calmodulin

B2: DARPP-21: neuronal 21 kDa dopamine- and cAMP-regulated phosphoprotein (protein, UniProt Q9UBL0 2-812, looked up)
cAMP-regulated phosphoprotein …: SEQGDLNQAIAEEGGTEQETATPENGIVKSESLDEEEKLELQRRLEAQNQERRKSKSGAGKGKLTRSLAVCEESSARPGGESLQDQESIHLQLSSFSSLQEEDKSRKDDSEREKEKDKNKDKTSEKPKIRMLSKDCSQEYTDSTGIDLHEFLINTLKNNSRDRMILLKMEQEIIDFIADNNNHYKKFPQMSSYQRMLVHRVAAYFGLDHNVDQTGKSVIINKTSSTRIPEQRFCEHLKDEKGEESQKRFILKRDNSSIDKEDNQQNRMHPFRDDRRSKSIEEREEEYQRVRERIFAHDSVCSQESLFVENSRLLEDSNICNETYKKRQLFRGNRDGSGRTSGSRQSSSENELKWSDHQRAWSSTDSDSSNRNLKPAMTKTASFGGITVLTRGDSTSSTRSTGKLSKAGSESSSSAGSSGSLSRTHPPLQSTPLVSGVAAGSPGCVPYPENGIGGQVAPSSTSYILLPLEAATGIPPGSILLNPHTGQPFVNPDGTPAIYNPPTSQQPLRSAMVGQSQQQPPQQQPSPQPQQQVQPPQPQMAGPLVTQRDDVATQFGQMTLSRQSSGETPEPPSGPVYPSSLMPQPAQQPSYVIASTGQQLPTGGFSGSGPPISQQVLQPPPSPQGFVQQPPPAQMPVYYYPSGQYPTSTTQQYRPMAPVQYNAQRSQQMPQAAQQAGYQPVLSGQQGFQGLIGVQQPPQSQNVINNQQGTPVQSVMVSYPTMSSYQVPMTQGSQGLPQQSYQQPIMLPNQAGQGSLPATGMPVYCNVTPPTPQNNLRLIGPHCPSSTVPVMSASCRTNCASMSNAGWQVKF
binding to calmodulin-Sepharose (calmodulin [2]): detected only in the calcium-equilibrated column

B3: unphosphorylated DARPP-21: neuronal 21 kDa dopamine- and cAMP-regulated phosphoprotein, not phosphorylated (protein, UniProt Q9UBL0 2-812, looked up)
cAMP-regulated phosphoprotein …: SEQGDLNQAIAEEGGTEQETATPENGIVKSESLDEEEKLELQRRLEAQNQERRKSKSGAGKGKLTRSLAVCEESSARPGGESLQDQESIHLQLSSFSSLQEEDKSRKDDSEREKEKDKNKDKTSEKPKIRMLSKDCSQEYTDSTGIDLHEFLINTLKNNSRDRMILLKMEQEIIDFIADNNNHYKKFPQMSSYQRMLVHRVAAYFGLDHNVDQTGKSVIINKTSSTRIPEQRFCEHLKDEKGEESQKRFILKRDNSSIDKEDNQQNRMHPFRDDRRSKSIEEREEEYQRVRERIFAHDSVCSQESLFVENSRLLEDSNICNETYKKRQLFRGNRDGSGRTSGSRQSSSENELKWSDHQRAWSSTDSDSSNRNLKPAMTKTASFGGITVLTRGDSTSSTRSTGKLSKAGSESSSSAGSSGSLSRTHPPLQSTPLVSGVAAGSPGCVPYPENGIGGQVAPSSTSYILLPLEAATGIPPGSILLNPHTGQPFVNPDGTPAIYNPPTSQQPLRSAMVGQSQQQPPQQQPSPQPQQQVQPPQPQMAGPLVTQRDDVATQFGQMTLSRQSSGETPEPPSGPVYPSSLMPQPAQQPSYVIASTGQQLPTGGFSGSGPPISQQVLQPPPSPQGFVQQPPPAQMPVYYYPSGQYPTSTTQQYRPMAPVQYNAQRSQQMPQAAQQAGYQPVLSGQQGFQGLIGVQQPPQSQNVINNQQGTPVQSVMVSYPTMSSYQVPMTQGSQGLPQQSYQQPIMLPNQAGQGSLPATGMPVYCNVTPPTPQNNLRLIGPHCPSSTVPVMSASCRTNCASMSNAGWQVKF
effect on calcineurin activity (calcineurin; [3]): no effect | effect on CaMKI activity (CaMKI; [3]): no effect

B4: Phosphorylated DARPP-21: DARPP-21 phosphorylated in vitro with the catalytic subunit of PKA (protein, UniProt Q9UBL0 2-812, looked up)
cAMP-regulated phosphoprotein …: SEQGDLNQAIAEEGGTEQETATPENGIVKSESLDEEEKLELQRRLEAQNQERRKSKSGAGKGKLTRSLAVCEESSARPGGESLQDQESIHLQLSSFSSLQEEDKSRKDDSEREKEKDKNKDKTSEKPKIRMLSKDCSQEYTDSTGIDLHEFLINTLKNNSRDRMILLKMEQEIIDFIADNNNHYKKFPQMSSYQRMLVHRVAAYFGLDHNVDQTGKSVIINKTSSTRIPEQRFCEHLKDEKGEESQKRFILKRDNSSIDKEDNQQNRMHPFRDDRRSKSIEEREEEYQRVRERIFAHDSVCSQESLFVENSRLLEDSNICNETYKKRQLFRGNRDGSGRTSGSRQSSSENELKWSDHQRAWSSTDSDSSNRNLKPAMTKTASFGGITVLTRGDSTSSTRSTGKLSKAGSESSSSAGSSGSLSRTHPPLQSTPLVSGVAAGSPGCVPYPENGIGGQVAPSSTSYILLPLEAATGIPPGSILLNPHTGQPFVNPDGTPAIYNPPTSQQPLRSAMVGQSQQQPPQQQPSPQPQQQVQPPQPQMAGPLVTQRDDVATQFGQMTLSRQSSGETPEPPSGPVYPSSLMPQPAQQPSYVIASTGQQLPTGGFSGSGPPISQQVLQPPPSPQGFVQQPPPAQMPVYYYPSGQYPTSTTQQYRPMAPVQYNAQRSQQMPQAAQQAGYQPVLSGQQGFQGLIGVQQPPQSQNVINNQQGTPVQSVMVSYPTMSSYQVPMTQGSQGLPQQSYQQPIMLPNQAGQGSLPATGMPVYCNVTPPTPQNNLRLIGPHCPSSTVPVMSASCRTNCASMSNAGWQVKF
modifications: phospho-Ser55
notes: DARPP-21 phosphorylated in vitro with the catalytic subunit of PKA
IC50 (calcineurin; in vitro, FIG. 7): 1 µM | IC50 (CaMKI; in vitro, FIG. 6): 1.2 µM
